# In FireProtDB (doi:10.1021/bi00102a015):
# B1: Cytochrome c2, P00094 (parent)
# chain: MKISLTAATVAALVLAAPAFAGDAAKGEKEFNKCKTCHSIIAPDGTEIVKGAKTGPNLYGVVGRTAGTYPEFKYKDSIVALGASGFAWTEEDIATYVKDPGAFLKEKLDDKKAKTGMAFKLAKGGEDVAAYLASVVK
# Variants of: B1
# Conditions: Rhodobacter capsulatus (strain ATCC BAA-309 / NBRC 16581 / SB1003); pH 7.5; 25 °C; GdnHCl; CD; Tris-HCl 20 mM; NaCl 40 mM; structure 1C2R; whole UniProt chain shown
Variant,ddG of mutation (higher = less stable) [kcal/mol],denaturant m value [kcal/mol/M],denaturant midpoint (higher = more stable) [M],unfolding free energy [kcal/mol]
MKISLTAATVAALVLAAPAFAGDAAKGEKEFNDCKTCHSIIAPDGTEIVKGAKTGPNLYGVVGRTAGTYPEFKYKDSIVALGASGFAWTEEDIATYVKDPGAFLKEKLDDKKAKTGMAFKLAKGGEDVAAYLASVVK [K33D],1.1,2.8,1.2,3.3
MKISLTAATVAALVLAAPAFAGDAAKGEKEFNKCETCHSIIAPDGTEIVKGAKTGPNLYGVVGRTAGTYPEFKYKDSIVALGASGFAWTEEDIATYVKDPGAFLKEKLDDKKAKTGMAFKLAKGGEDVAAYLASVVK [K35E],0.9,2.8,1.2,3.5
MKISLTAATVAALVLAAPAFAGDAAKGEKEFNKCETCHSIIAPDGTEIVKGAETGPNLYGVVGRTAGTYPEFKYKDSIVALGASGFAWTEEDIATYVKDPGAFLKEKLDDKKAKTGMAFKLAKGGEDVAAYLASVVK [K35E K53E],0.8,3,1.2,3.6
MKISLTAATVAALVLAAPAFAGDAAKGEKEFNKCKTCHSIIAPDGTEIVKGAETGPNLYGVVGRTAGTYPEFKYKDSIVALGASGFAWTEEDIATYVKDPGAFLKEKLDDKKAKTGMAFKLAKGGEDVAAYLASVVK [K53E],-0.4,3,1.6,4.8
